In paper PMC4844422, “Activity Regulation by Heteromerization of Arabidopsis Allene Oxide Cyclase Family Members” (Plants, 2016):

B1: Arabidopsis allene oxide cyclase 2 (AOC2), recombinant, with N-terminal His-tag (enzyme, Arabidopsis thaliana, UniProt Q9LS02 78-253, looked up)
chain: PSKVQELSVYEINELDRHSPKILKNAFSLMFGLGDLVPFTNKLYTGDLKKRVGITAGLCVVIEHVPEKKGERFEATYSFYFGDYGHLSVQGPYLTYEDSFLAITGGAGIFEGAYGQVKLQQLVYPTKLFYTFYLKGLANDLPLELTGTPVPPSKDIEPAPEAKALEPSGVISNYTN
notes: also called AtAOC2; hAOC2; source: E. coli M15 (pQE30), purified (Ni-NTA-agarose); not shown: His-tag, N-terminal, kept
B2: Arabidopsis allene oxide cyclase 2 (AOC2), recombinant, with C-terminal His-tag (enzyme, Arabidopsis thaliana, UniProt Q9LS02 78-253, looked up)
chain: B1 chain
notes: also called AtAOC2; source: E. coli M15 (pQE60), purified (Ni-NTA-agarose); not shown: His-tag, C-terminal, kept

Target: the molecule itself
Assay: SDS-PAGE after mild SDS treatment (SDS-stable oligomer); purified His-tagged protein treated with 1% SDS for 5 min at room temperature or 42 °C, 12% SDS-PAGE, anti-His-tag immunoblot; trimer at about 65 kDa, monomer 26 kDa

| Protein | stoichiometry N |
| --- | --- |
| B1 | 3 |
| B2 | 3 |
